These results are taken from patent US20110046070A1, “GENE EXPRESSION INHIBITOR SELECTIVE FOR MATRIX METALLOPROTEINASE-9 GENE” (priority 2008, published 2011).

Each structure is given as a SMILES string.

This data set is described as follows: Tissue distribution of fluorescently labeled polyamide. In kind it is in vivo. The settings on record: 7.5 mg/kg tail vein, mice. The method, then: On day 1 (24 hours), day 6 and day 21 after the intravenous injection, the mice were dissected, and each tissue of the livers, the spleens and the kidneys was collected and prepared into frozen sections, which were then fixed in 4% paraformaldehyde for 30 minutes.

As for `CN(C)CCCNC(=O)CCNC(=O)c1cc(NC(=O)c2cc(NC(=O)CCNC(=O)c3nc(NC(=O)c4nc(NC(=O)CCCNC(=O)c5cc(NC(=O)c6cc(NC(=O)CCNC(=O)c7cc(NC(=O)c8cc(NC(=O)CCNC(=S)Nc9ccc(-c%10c%11ccc(=O)cc-%11oc%11cc(O)ccc%10%11)c(C(=O)O)c9)cn8C)cn7C)cn6C)cn5C)cn4C)cn3C)cn2C)cn1C` [HMMP9NFκβ-FITC], where the note is “after 1 day”, the “incorporation in the nuclei of liver and kidney cells” value was “A large number”; the “incorporation in the nuclei of spleen cells” value is “also incorporated in the nuclei of spleen cells”. In addition, the “FITC fluorescence in tissue” value (after 6 days) was “strong FITC fluorescence was observed”. Moreover, the “FITC fluorescence intensity in the cells of each tissue” value (after 21 days) is recorded as “remarkably attenuated”.
